Measured values taken from patent US7164008B2, “Isolated complexes of endotoxin and MD-2” (priority 2003, dated 2007).

Test system: human airway epithelia
Test: Endotoxin responsiveness of primary human airway epithelia (HBD-2 mRNA real time PCR, NF-κB-luciferase)
Assay type: cell-based
Settings: N. meningitidis LOS-sCD14 5 ng LOS/ml, 24 hr, HBD-2 real time PCR
Description: FIG. 6 depicts endotoxin responsiveness of well-differentiated primary cultures of human airway epithelia. Polarized epithelia were treated with NTHi LOS (100 ng/ml), sCD14 (100 ng/ml) and LBP (250 ng/ml) by apical application in a 50 μl volume. Twenty-four hours later, epithelia were harvested and analyzed for HBD-2 mRNA expression by real time PCR. As depicted in FIG. 6A, apical stimulation of airway epithelia with NTHi LOS induced little change in HBD-2 MRNA expression (2 epithelia/trial, n=3 different donors, * indicates p<0.05). In contrast, IL-1β markedly induces HBD-2 mRNA. FIG. 6B depicts the polarity of epithelial responses to IL-1β and NTHi LOS. […]
FIG. 9 depicts the effects of MD-2 complementation on endotoxin responsiveness in human airway epithelia. […] Fold increase in HBD-2 mRNA expression were quantified by real time PCR. […] NF-κB-luciferase activity was measured 24 hr following endotoxin treatment (n=5 epithelia/condition, * indicates p<0.05). […] 24 hr after endotoxin treatment, HBD-2 expression was quantified by real time PCR. […]
Well differentiated human airway epithelia were treated with N. meningitidis LOS-sCD14 (5 ng LOS/ml), with or without the addition of cell culture supernatants containing rMD-2. […] HBD-2 expression was quantified by real time PCR. […]
Real-time PCR was employed to detect human β-defensin-2 and MD-2 and to quantify changes in expression. […]

B1: wt MD-2: soluble polyhistidine-tagged recombinant wild-type MD-2 in conditioned insect cell culture medium (protein)
chain: QKQYWVCNSSDASISYTYCDKMQYPISINVNPCIELKRSKGLLHIFYIPRRDLKQLYFNLYITVNTMNLPKRKEVICRGSDDDYSFCRALKGETVNTTISFSFKGIKFSKGKYKCVVEAISGSPEEMLFCLEFVILHQPNSNHHHHHH
increase of response of human airway epithelial cultures to LOS-sCD14: ≥ 100 fold
